Results as given in article PMC11066842, “Formation of Calprotectin Inhibits Amyloid Aggregation of S100A8 and S100A9 Proteins” (ACS Chemical Neuroscience, 2024).

B1: S100A8 (calgranulin A) (natural protein)
chain: MLTELEKALNSIIDVYHKYSLIKGNFHAVYRDDLKKLLETECPQYIRKKGADVWFKELDINTDGAVNFQEFLILVIKMGVAAHKKSHEESHKE
notes: S100A8 (calgranulin A); construct His6-SUMO-S100A8 in pET28a, tag removed by SENP1; also called S100A8 subunit of calprotectin (CP); source: E. coli BL21(DE3), purified (Ni2+ Sepharose, SENP1 cleavage of His6-SUMO, second Ni2+ column, Superdex 75 SEC); not shown: His6, N-terminal, cleaved; SUMO, N-terminal, cleaved
B2: S100A9 (calgranulin B) (natural protein)
chain: TCKMSQLERNIETIINTFHQYSVKLGHPDTLNQGEFKELVRKDLQNFLKKENKNEKVIEHIMEDLDTNADKQLSFEEFIMLMARLTWASHEKMHEGDEGPGHHHKPGLGEGTP
notes: S100A9 (calgranulin B); construct His6-SUMO-S100A9 in pET28a, tag removed by SENP1; also called S100A9 subunit of calprotectin (CP); source: E. coli BL21(DE3), purified (Ni2+ Sepharose, SENP1 cleavage of His6-SUMO, second Ni2+ column, Superdex 75 SEC); not shown: His6, N-terminal, cleaved; SUMO, N-terminal, cleaved

Experiments:
[1] = target: the molecule itself; test: dynamic light scattering; 100 uM S100A8, 100 uM S100A9, 50 uM CP; 50 mM HEPES pH 7.4; 8 °C; hydrodynamic radius compared with published radii of S100 dimers
[2] = target: B2; test: SEC; Tricorn 10/300 column with Superdex 75 prep grade, 50 mM HEPES pH 7.4, 1 mM EDTA, 1 mM TCEP, no calcium; CP formed from an equimolar mix of S100A8 and S100A9 by acid denaturation (pH 2.0-2.5), stepwise dialysis and anion exchange; conditions: both partners purified

Binder	binding result [1]	binding result [2]
B1	binds	binds
B2	binds	–
